In patent US20040013664A1:

Biological target: Fas receptor on human cells (Jurkat, HT-29) (human) (UniProt P25445)
Assay: cell-based or functional assay

Sequence of Fas receptor on human cells (Jurkat, HT-29) (human) (P25445 26-335): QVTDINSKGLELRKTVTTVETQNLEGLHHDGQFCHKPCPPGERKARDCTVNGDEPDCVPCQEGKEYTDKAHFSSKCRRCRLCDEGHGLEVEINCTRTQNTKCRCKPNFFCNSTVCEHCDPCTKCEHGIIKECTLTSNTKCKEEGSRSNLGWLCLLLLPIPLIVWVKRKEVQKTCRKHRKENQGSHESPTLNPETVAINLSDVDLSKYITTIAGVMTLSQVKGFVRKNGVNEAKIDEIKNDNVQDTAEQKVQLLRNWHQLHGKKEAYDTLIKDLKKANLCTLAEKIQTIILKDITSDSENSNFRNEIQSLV

% Cells undergoing apoptosis (Jurkat, annexin/propidium iodide FACS); FasL (20 ng): 8.87%
Substance: sFas ligand (Alexis Corporation, FLAG epitope tag at its N-terminus) (from UniProt P48023 103-281)
decrease in Jurkat cell viability (ALOMAR blue): 50%
